According to patent US20130071379A1:

B1: 1B20 variant A6 (antibody, part only; not given: light chain, V domains shown, part only)
VH: QVQLVQSGAEVKKPGESLKISCKGSGYSFTNYYISWVRQMPGKGLEWMGLIYPGDSYTRYNPSFQGQVTISADKSISTAYLQWSSLKASDTAMYYCARDYYSRPFSDIWGQGTLVTVSS
B2: 1B20 variant G3 (antibody, part only; not given: light chain, probably the common parent VL, V domains shown, part only)
VH: QVQLVQSGAEVKKPGESLKISCKGSGYSFTNYYISWVRQMPGKGLEWMGLIYPGDSYTRYNPKFQGQVTISADKSISTAYLQWSSLKASDTAMYYCARDYYSRPYSDVWGQGTLVTVSS
B3: 1B20 variant G5 (antibody, part only; not given: light chain, V domains shown, part only)
VH: QVQLVQSGAEVKKPGESLKISCKGSGYSFTDYYISWVRQMPGKGLEWMGLIYPGDSYTRYSPNFQGQVTISADKSISTAYLQWSSLKASDTAMYYCARDHGYRPYSDIWGQGTLVTVSS
B4: 1B20 variant B2 (antibody, part only; not given: light chain, probably the common parent VL, V domains shown, part only)
VH: QVQLVQSGAEVKKPGESLKISCKGSGYSFTNYYISWVRQMPGKGLEWMGLIYPGDSYTNYNPNFQGQVTISADKSISTAYLQWSSLKASDTAMYYCARDHYSTPFFDVWGQGTLVTVSS
B5: 1B20 variant E2 (antibody, part only; not given: light chain, probably the common parent VL, V domains shown, part only)
VH: QVQLVQSGAEVKKPGESLKISCKGSGYSFTNYYISWVRQMPGKGLEWMGLIYPGDSYTRYNRKFQGQVTISADKSISTAYLQWSSLKASDTAMYYCARDYYSRPLSDVWGQGTLVTVSS
B6: 1B20 variant G4 (antibody, part only; not given: light chain, probably the common parent VL, V domains shown, part only)
VH: QVQLVQSGAEVKKPGESLKISCKGSGYSFTNYYISWVRQMPGKGLEWMGLIYPGDSYTRYSPRFQGQVTISADKSISTAYLQWSSLKASDTAMYYCARDHGYKPYSDIWGQGTLVTVSS
B7: 1B20 variant F4 (antibody, part only; not given: light chain, probably the common parent VL, V domains shown, part only)
VH: QVQLVQSGAEVKKPGESLKISCKGSGYSFTDYYISWVRQMPGKGLEWMGLIYPGDSYTRYSPSFQGQVTISADKSISTAYLQWSSLKASDTAMYYCARDYYSKPLFDVWGQGTLVTVSS
B8: 1B20 variant B9 (antibody, part only; not given: light chain, V domains shown, part only)
VH: QVQLVQSGAEVKKPGESLKISCKGSGYSFTNYYISWVRQMPGKGLEWMGIIYPGDSYIHYNQNFQGQVTISADKSISTAYLQWSSLKASDTAMYYCARDYYSRPFSDIWGQGTLVTVSS
B9: 1B20 variant C3 (antibody, part only; not given: light chain, probably the common parent VL, V domains shown, part only)
VH: QVKLVQSGAEVKKPGESLKISCKGSGYSFTNYYIAWVRQMPGKGLEWMGIIYPGDSYTHYNPKFQGQVTISADKSISTAYLQWSSLKASDTAMYYCARDHGYKPFSDIWGQGTLVTVSS
B10: 1B20 variant F2 (antibody, part only; not given: light chain, V domains shown, part only)
VH: QVQLVQSGAEVKKPGESLKISCKGSGYSFTNYYIAWVRQMPGKGLEWMGVIYPGDSYTRYNPKFQGQVTISADKSISTAYLQWSSLKASDTAMYYCARDYWSRPYFDIWGQGTLVTVSS
B11: 1B20 variant F7 (antibody, part only; not given: light chain, V domains shown, part only)
VH: QVQLVQSGAEVKKPGESLKISCKGSGYSFTNYYIAWVRQMPGKGLEWMGIIYPGDSYTHYNPKFQGQVTISADKSISTAYLQWSSLKASDTAMYYCARDHWSRPFSDVWGQGTLVTVSS
B12: 1B20 variant A7 (antibody, part only; not given: light chain, V domains shown, part only)
VH: QVQLVQSGAEVKKPGESLKISCKGSGYSFTNYYISWVRQMPGKGLEWMGIIYPGDSYTRYNPNFQGQVTISADKSISTAYLQWSSLKASDTAMYYCARDYWSKPLSDVWGQGTLVTVSS
B13: 1B20 variant G8 (antibody, part only; not given: light chain, probably the common parent VL, V domains shown, part only)
VH: QVQLVQSGAEVKKPGESLKISCKGSGYSFTDYYISWVRQMPGKGLEWMGLIYPGDSYTHYNPNFQGQVTISADKSISTAYLQWSSLKASDTAMYYCARDHWSKPYFDVWGQGTLVTVSS
B14: 1B20 variant H4 (antibody, part only; not given: light chain, probably the common parent VL, V domains shown, part only)
VH: QVQLVQSGAEVKKPGESLKISCKGSGYSFTNYYITWVRQMPGRGLEWMGIIYPGDSYTRYNPKFQGQVTISADKSISTAYLQWSSLKASDTAMYYCARDHWSKPFSDVWGQGTLVTVSS
B15: 1B20 variant D5 (antibody, part only; not given: light chain, probably the common parent VL, V domains shown, part only)
VH: QVQLVQSGAEVKKPGESLKISCKGSGYSFTNYYITWVRQMPGKGLEWMGLIYPGDSYTRYSPRFQGQVTISADKSISTAYLQWSSLKASDTAMYYCARDHWSRPYSDVWGQGTLVTVSS
B16: 1B20 variant D4 (antibody, part only; not given: light chain, probably the common parent VL, V domains shown, part only)
VH: QVQLVQSGAEVKKPGESLKISCKGSGYSFTDYYIAWVRQMPGKGLEWMGIIYPGDSYTRYNPKFQGQVTISADKSISTAYLQWSSLKASDTAMYYCARDYWSRPFSDVWGQGTLVTVSS
B17: 1B20 variant B4 (antibody, part only; not given: light chain, probably the common parent VL, V domains shown, part only)
VH: QVQLVQSGAEVKKPGESLKISCKGSGYSFTDYYISWVRQMPGKGLEWMGLIYPGDSYTHYNPNFQGQVTISADKSISTAYLQWSSLKASDTAMYYCARDYWSKPLFDVWGQGTLVTVSS
B18: 1B20 variant H1 (antibody, part only; not given: light chain, probably the common parent VL, V domains shown, part only)
VH: QVQLVQSGAEVKKPGESLKISCKGSGYSFTDYYIAWVRQMPGKGLEWMGIIYPGDSYTRYNPRFQGQVTISADKSISTAYLQWSSLKASDTAMYYCARDYWSKPLSDIWGQGTLVTVSS
B19: 1B20 variant G2 (antibody, part only; not given: light chain, probably the common parent VL, V domains shown, part only)
VH: QVKLVQSGAEVKKPGESLKISCKGSGYSFTDYYISWVRQMPGKGLEWMGIIYPGDSYTHYNPKFQGQVTISADKSISTAYLQWSSLKASDTAMYYCARDRWSKPLFDVWGQGTLVTVSS
B20: 1B20 variant A1 (antibody, part only; not given: light chain, probably the common parent VL, V domains shown, part only)
VH: QVQLVQSGAEVKKPGESLKISCKGSGYSFTDYYISWVRQMPGKGLEWMGLIYPGDSYTRYNPSFQGQVTISADKSISTAYLQWSSLKASDTAMYYCARDYWSKPLSDIWGQGTLVTVSS
B21: 1B20 variant A4 (antibody, part only; not given: light chain, probably the common parent VL, V domains shown, part only)
VH: QVQLVQSGAEVKKPGESLKISCKGSGYSFTDYYISWVRQMPGKGLEWMGSIYPGDSYTHYSHKFQGQVTISADKSISTAYLQWSSLKASDTAIYYCARDHWSRPFFDVWGQGTLVTVSS
B22: 1B20 variant C2 (antibody, part only; not given: light chain, probably the common parent VL, V domains shown, part only)
VH: QVQLVQSGAEVKKPGESLKISCKGSGYSFTDYYIAWVRQMPGKGLEWMGLIYPGDSYTSYNPRFQGQVTISADKSISTAYLQWSSLKASDTAMYYCARDYWSTPYFDIWGQGTLVTVSS
B23: 1B20 variant H5 (antibody, part only; not given: light chain, probably the common parent VL, V domains shown, part only)
VH: QVQLVQSGAEVKKPGESLKISCKGSGYSFTDYYISWVRQMPGKGLEWMGIIYPGDSYTSYSPRFQGQVTISADKSISTAYLQWSSLKASDTAMYYCARDYWSRPLFDVWGQGTLVTVSS
B24: 1B20 variant F6 (antibody, part only; not given: light chain, probably the common parent VL, V domains shown, part only)
VH: QVQLVQSGAEVKKPGESLKISCKGSGYSFTNYYISWVRQMPGKGLEWMGLIYPGDSYTHYNPSFQGQVTISADKSISTAYLQWSSLKASDTAMYYCARDHWYKPFSDIWGQGTLVTVSS
B25: 1B20 variant B6 (antibody, part only; not given: light chain, probably the common parent VL, V domains shown, part only)
VH: QVQLVQSGAEVKKPGESLKISCKGSGYSFTDYYISWVRQMPGKGLEWMGIIYPGDSYTNYNPSFQGQVTISADKSISTAYLQWSSLKASDTAMYYCARDYWYRPFSDIWGQGTLVTVSS
B26: 1B20 variant B1 (antibody, part only; not given: light chain, probably the common parent VL, V domains shown, part only)
VH: QVQLVQSGAEVKKPGESLKISCKGSGYSFTDYYISWVRQMPGKGLEWMGIIYPGDSYTHYSPNFQGQVTISADKSISTAYLQWSSLKASDTAMYYCARDYWYTPFFDVWGQGTLVTVSS
B27: 1B20 variant F1 (antibody, part only; not given: light chain, probably the common parent VL, V domains shown, part only)
VH: QVQLVQSGAEVKKPGESLKISCKGSGYSFTDYYISWVRQMPGKGLEWMGLIYPGDSYTNYSPKFQGQVTISADKSISTAYLQWSSLKASDTAMYYCARDHWSKPLSDVWGQGTLVTVSS
B28: 1B20 variant A8 (antibody, part only; not given: light chain, probably the common parent VL, V domains shown, part only)
VH: QVQLVQSGAEVKKPGESLKISCKGSGYSFTNYYISWVRQMPGKGLEWMGMIYPGDSYTHYSPNFQGQVTISADKSISTAYLQWSSLKASDTAMYYCARDYWSKPYFDVWGQGTLVTVSS
B29: 1B20 variant B3 (antibody, part only; not given: light chain, probably the common parent VL, V domains shown, part only)
VH: QVQLVQSGAEVKKPGESLKISCKGSGYSFTNYYISWVRQMPGKGLEWMGMIYPGDSYTSYNPKFQGQVTISADKSISTAYLQWSSLKASDTAMYYCARDHWSKPYFDIWGQGTLVTVSS
B30: 1B20 variant F8 (antibody, part only; not given: light chain, probably the common parent VL, V domains shown, part only)
VH: QVQLVQSGAEVKKPGESLKISCKGSGYSFTNYYISWVRQMPGKGLEWMGMIYPGDSYTNYNQKFQGQVTISADKSISTAYLQWSSLKASDTAMYYCARDYWSRPYSDIWGQGTLVTVSS
B31: 1B20 variant H8 (antibody, part only; not given: light chain, probably the common parent VL, V domains shown, part only)
VH: QVQLVQSGAEVKKPGESLKISCKGSGYSFTDYYISWVRQMPGKGLEWMGMIYPGDSYTHYSQNFQGQVTISADKSISTAYLQWSSLKASDTAMYYCARDHWSRPFFDVWGQGTLVTVSS
B32: 1B20 variant B5 (antibody, part only; not given: light chain, probably the common parent VL, V domains shown, part only)
VH: QVQLVQSGAEVKKPGESLKISCKGSGYSFTDYYISWVRQMPGKGLEWMGMIYPGDSYTRYSPSFQGQVTISADKSISTAYLQSSSLKASDTAMYYCARDYWYKPFSDVWGQGTLVTVSS
B33: 1B20 variant E1 (antibody, part only; not given: light chain, probably the common parent VL, V domains shown, part only)
VH: QVQLVQSGAEVKKPGESLKISCKGSGYSFTNYYISWVRQMPGKGLEWMGMIYPGDSYTSYNPNFQGQVTISADKSISTAYLQWSSLKASDTAMYYCARDHWSKPFFDIWGQGTLVTVSS
B34: 1B20 variant E8 (antibody, part only; not given: light chain, probably the common parent VL, V domains shown, part only)
VH: QVQLVQSGAEVKKPGESLKISCKGSGYSFTNYYITWVRQMPGKGLEWMGMIYPGDSYTRYSPKFQGQVTISADKSISTAYLQWSSLKASDTAMYYCARDHWSKPLSDVWGQGTLVTVSS
B35: 1B20 variant C1 (antibody, part only; not given: light chain, probably the common parent VL, V domains shown, part only)
VH: QVQLVQSGAEVKKPGESLKISCKGSGYSFTNYYISWVRQMPGKGLEWMGMIYPGDSYTRYSPKFQGQVTISADKSISTAYLQWSSLKASDTAMYYCARDHWYRPYSDIWGQGTLVTVSS

What follows are binders tested against PCSK9 (assay: Biacore SPR).
Work on B1 yielded a Kd of 1.39 nM. B2 showed a Kd of 1.53 nM. Binder B3 has a Kd of 1.65 nM. B4 was tested, and the Kd was 2.21 nM. In the case of B5, the Kd is reported as 2.62 nM. Work on B6 yielded a Kd of 2.9 nM. For B7, the Kd was 3.14 nM. B8 was tested, and the Kd was 3.81 nM. In the case of B9, the Kd is reported as 4.5 nM. In the case of B10, the Kd is reported as 1.01 nM. Work on B11 yielded a Kd of 1.26 nM. In the case of B12, the Kd is reported as 1.28 nM. In the case of B13, the Kd is reported as 1.51 nM. B14 was tested, and the Kd was 1.52 nM. B15 showed a Kd of 1.6 nM. In the case of B16, the Kd is reported as 1.91 nM. Work on B17 yielded a Kd of 2.01 nM. B18 was tested, and the Kd was 2.01 nM. For B19, the Kd was 2.11 nM. With B20 the Kd was 2.15 nM. B21 was tested, and the Kd was 2.15 nM. B22 was tested, and the Kd was 2.25 nM. Work on B23 yielded a Kd of 2.41 nM. With B24 the Kd was 2.68 nM. B25 showed a Kd of 2.88 nM. In the case of B26, the Kd is reported as 3.73 nM. B27 showed a Kd of 3.47 nM. With B28 the Kd was 1.19 nM. With B29 the Kd was 1.21 nM. With B30 the Kd was 1.35 nM. B31 gave a Kd of 1.35 nM. B32 gave a Kd of 1.36 nM. B33 showed a Kd of 1.36 nM. Binder B34 has a Kd of 1.62 nM. With B35 the Kd was 1.65 nM.
